# Measurements published in patent US20210040184A1 (ATRECA, published 2021).
# Experiments:
# Experiment in all cases: cell-based or functional assay
# [1] = target: T1, HIV-1 REJO4541.67 envelope (Env) on Env.IMC.LucR virus (HIV-1 clade B)
# [2] = target: HIV-1 WITO4160.33 envelope (Env) on Env.IMC.LucR virus (HIV-1 clade B)
# [3] = target: HIV-1 THRO4156.18 envelope (Env) on Env.IMC.LucR virus (HIV-1 clade B)
# [4] = target: T2, HIV-1 AC10.0.29 envelope (Env) on Env.IMC.LucR virus (HIV-1 clade B)
# [5] = target: T3, HIV-1 X1632_S2_B10 envelope (Env) on Env.IMC.LucR virus (HIV-1 clade G)
# [6] = target: HIV-1 ZM233M.PB6 envelope (Env) on Env.IMC.LucR virus (HIV-1 clade C)
# [7] = target: T4, HIV-1 CNE20 envelope (Env) on Env.IMC.LucR virus (HIV-1 clade BC)
# [8] = target: T5, HIV-1 DU172.17 envelope (Env) on Env.IMC.LucR virus (HIV-1 clade C)
# [9] = target: T6, HIV-1 CAP45.2.00.G3 envelope (Env) on Env.IMC.LucR virus (HIV-1 clade C)
# [10] = target: T7, HIV-1 DU422.1 envelope (Env) on Env.IMC.LucR virus (HIV-1 clade C)
# [11] = target: T1, HIV-1 REJO4541.67 envelope (Env) on …; remark: listed apart in the source
# [12] = target: T2, HIV-1 AC10.0.29 envelope (Env) on …; remark: listed apart in the source
# [13] = target: T3, HIV-1 X1632_S2_B10 envelope (Env) on …; remark: listed apart in the source
# [14] = target: T4, HIV-1 CNE20 envelope (Env) on …; remark: listed apart in the source
# [15] = target: T5, HIV-1 DU172.17 envelope (Env) on …; remark: listed apart in the source
# [16] = target: T6, HIV-1 CAP45.2.00.G3 envelope (Env) on …; remark: listed apart in the source
# [17] = target: T7, HIV-1 DU422.1 envelope (Env) on …; remark: listed apart in the source
# [18] = target: T5, HIV-1 DU172.17 envelope (Env) on …; remark: listed apart in the source
binder,measurement,setting,value
"NVS49-L1A2 (antibody, V domains shown) VH: ADLVQSGAVVKKPGDSVRISCEAQGYRFPDYIIHWIRRAPGQGPEWMGWMNPMGGQVNIPWKFQGRVSMTRDTSIETAFLDLRGLKSDDTAVYYCVRDRSNGSGKRFESSNWFLDLWGRGTAVTIQS VL: QSALTQPRSVSASPGQSVTISCTGTHNLVSWCQHQPGRAPKLLIYDFNKRPSGVPDRFSGSGSGGTASLTITGLQDDDDAEYFCWAYEAFGGGTKLTVL","IC50 of virus neutralization (TZM-BL, luciferase)",[1],0.072 µg/mL
same,"IC50 of virus neutralization (TZM-BL, luciferase)",[2],0.2 µg/mL
same,"IC50 of virus neutralization (TZM-BL, luciferase)",[3],1.04 µg/mL
same,"IC50 of virus neutralization (TZM-BL, luciferase)",[4],> 50 µg/mL
same,"IC50 of virus neutralization (TZM-BL, luciferase)",[5],> 50 µg/mL
same,"IC50 of virus neutralization (TZM-BL, luciferase)",[6],0.613 µg/mL
same,"IC50 of virus neutralization (TZM-BL, luciferase)",[7],0.124 µg/mL
same,"IC50 of virus neutralization (TZM-BL, luciferase)",[8],0.279 µg/mL
same,"IC50 of virus neutralization (TZM-BL, luciferase)",[9],0.209 µg/mL
same,"IC50 of virus neutralization (TZM-BL, luciferase)",[10],> 50 µg/mL
same,"IC50 of virus neutralization (TZM-BL, luciferase); L1A2 lot CRO #1, 293 cells",[11],0.054 µg/mL
same,"IC50 of virus neutralization (TZM-BL, luciferase); L1A2 lot CRO #2, 293 cells",[11],0.072 µg/mL
same,"IC50 of virus neutralization (TZM-BL, luciferase); L1A2 lot CRO #2, CHO cells",[11],0.045 µg/mL
same,"IC50 of virus neutralization (TZM-BL, luciferase); L1A2 lot CRO #1, 293 cells",[12],> 50 µg/mL
same,"IC50 of virus neutralization (TZM-BL, luciferase); L1A2 lot CRO #2, 293 cells",[12],> 50 µg/mL
same,"IC50 of virus neutralization (TZM-BL, luciferase); L1A2 lot CRO #2, CHO cells",[12],> 50 µg/mL
same,"IC50 of virus neutralization (TZM-BL, luciferase); L1A2 lot CRO #1, 293 cells",[13],> 50 µg/mL
same,"IC50 of virus neutralization (TZM-BL, luciferase); L1A2 lot CRO #2, 293 cells",[13],> 50 µg/mL
same,"IC50 of virus neutralization (TZM-BL, luciferase); L1A2 lot CRO #2, CHO cells",[13],> 50 µg/mL
same,"IC50 of virus neutralization (TZM-BL, luciferase); L1A2 lot CRO #1, 293 cells",[14],0.089 µg/mL
same,"IC50 of virus neutralization (TZM-BL, luciferase); L1A2 lot CRO #2, 293 cells",[14],0.124 µg/mL
same,"IC50 of virus neutralization (TZM-BL, luciferase); L1A2 lot CRO #2, CHO cells",[14],0.092 µg/mL
same,"IC50 of virus neutralization (TZM-BL, luciferase); L1A2 lot CRO #1, 293 cells",[15],0.268 µg/mL
same,"IC50 of virus neutralization (TZM-BL, luciferase); L1A2 lot CRO #2, 293 cells",[15],0.279 µg/mL
same,"IC50 of virus neutralization (TZM-BL, luciferase); L1A2 lot CRO #2, CHO cells",[15],0.507 µg/mL
same,"IC50 of virus neutralization (TZM-BL, luciferase); L1A2 lot CRO #1, 293 cells",[16],0.132 µg/mL
same,"IC50 of virus neutralization (TZM-BL, luciferase); L1A2 lot CRO #2, 293 cells",[16],0.209 µg/mL
same,"IC50 of virus neutralization (TZM-BL, luciferase); L1A2 lot CRO #2, CHO cells",[16],0.162 µg/mL
same,"IC50 of virus neutralization (TZM-BL, luciferase); L1A2 lot CRO #1, 293 cells",[17],> 50 µg/mL
same,"IC50 of virus neutralization (TZM-BL, luciferase); L1A2 lot CRO #2, 293 cells",[17],> 50 µg/mL
same,"IC50 of virus neutralization (TZM-BL, luciferase); L1A2 lot CRO #2, CHO cells",[17],> 50 µg/mL
"NglycoND (antibody, V domains shown) VH: ADLVQSGAVVKKPGDSVRISCEAQGYRFPDYIIHWIRRAPGQGPEWMGWMNPMGGQVNIPWKFQGRVSMTRDTSIETAFLDLRGLKSDDTAVYYCVRDRSDGSGKRFESSNWFLDLWGRGTAVTIQS VL: QSALTQPRSVSASPGQSVTISCTGTHNLVSWCQHQPGRAPKLLIYDFNKRPSGVPDRFSGSGSGGTASLTITGLQDDDDAEYFCWAYEAFGGGTKLTVL",fold increase in neutralization IC50 as compared to parent mAb L1A2,[18],~65 fold
same,"IC50 of virus neutralization (TZM-BL, luciferase)",[1],0.062 µg/mL
same,"IC50 of virus neutralization (TZM-BL, luciferase)",[4],> 50 µg/mL
same,"IC50 of virus neutralization (TZM-BL, luciferase)",[5],> 50 µg/mL
same,"IC50 of virus neutralization (TZM-BL, luciferase)",[7],> 50 µg/mL
same,"IC50 of virus neutralization (TZM-BL, luciferase)",[8],18.3 µg/mL
same,"IC50 of virus neutralization (TZM-BL, luciferase)",[9],0.077 µg/mL
same,"IC50 of virus neutralization (TZM-BL, luciferase)",[10],> 50 µg/mL
"Germ12_NglycoSA_CysCV (antibody, V domains shown) VH: QVDLVQSGAVVKKPGDSVRVSCEAQGYRFPDYIIHWIRRAPGQGPEWMGWMNPMGGQVNIPWKFQGRVSMTRDTSIETAYMDLRGLRSDDTAVYYCVRDRSNGAGKRFESSNWFLDLWGRGTLVTVSS VL: QSALTQPRSVSGSPGQSVTISCTGTHNLVSWVQHQPGRAPKLLIYDFNKRPSGVPDRFSGSGSGGTASLTISGLQDEDDAEYFCWAYEAFGGGTKLTVL","IC50 of virus neutralization (TZM-BL, luciferase)",[1],≤ 0.02 µg/mL
same,"IC50 of virus neutralization (TZM-BL, luciferase)",[2],0.488 µg/mL
same,"IC50 of virus neutralization (TZM-BL, luciferase)",[3],11.7 µg/mL
same,"IC50 of virus neutralization (TZM-BL, luciferase)",[4],> 50 µg/mL
same,"IC50 of virus neutralization (TZM-BL, luciferase)",[5],> 50 µg/mL
same,"IC50 of virus neutralization (TZM-BL, luciferase)",[6],0.731 µg/mL
same,"IC50 of virus neutralization (TZM-BL, luciferase)",[7],0.059 µg/mL
same,"IC50 of virus neutralization (TZM-BL, luciferase)",[8],0.714 µg/mL
same,"IC50 of virus neutralization (TZM-BL, luciferase)",[9],0.047 µg/mL
same,"IC50 of virus neutralization (TZM-BL, luciferase)",[10],> 50 µg/mL
